These results are taken from US20120219559A1 (Johns Hopkins, published 2012).

First the molecules themselves.
B1: B7-DCIg (Fc fusion, Mus musculus, UniProt Q9WUL5 20-219, looked up)
fusion protein: LFTVTAPKEVYTVDVGSSVSLECDFDRRECTELEGIRASLQKVENDTSLQSERATLLEEQLPLGKALFHIPSVQVRDSGQYRCLVICGAAWDYKYLTVKVKASYMRIDTRILEVPGTGEVQLTCQARGYPLAEVSWQNVSVPANTSHIRTPEGLYQVTSVLRLKPQPSRNFSCMFWNAHMKELTSAIIDPLSRMEPKVPR
notes: Ig fusion protein purchased from R&D systems; also called mouse B7-DCIg fusion protein
B2: ICOS (receptor, Mus musculus, UniProt Q9WVS0 21-200, looked up)
membrane protein: EINGSADHRMFSFHNGGVQISCKYPETVQQLKMRLFREREVLCELTKTKGSGNAVSIKNPMLCLYHLSNNSVSFFLNNPDSSQGSYYFCSLSIFDPPPFQERNLSGGYLHIYESQLCCQLKLWLPVGCAAFVVVLLFGCILIIWFSKKKYGSSVHDPNSEYMFMAAVNTNKKSRLAGVTS

The target of test [1] is T1, mouse B7-H2, full length, expressed on 293T cells (mouse, UniProt Q9JHJ8 44-322).
T1 construct: whole, on cells
T1 sequence (looked up): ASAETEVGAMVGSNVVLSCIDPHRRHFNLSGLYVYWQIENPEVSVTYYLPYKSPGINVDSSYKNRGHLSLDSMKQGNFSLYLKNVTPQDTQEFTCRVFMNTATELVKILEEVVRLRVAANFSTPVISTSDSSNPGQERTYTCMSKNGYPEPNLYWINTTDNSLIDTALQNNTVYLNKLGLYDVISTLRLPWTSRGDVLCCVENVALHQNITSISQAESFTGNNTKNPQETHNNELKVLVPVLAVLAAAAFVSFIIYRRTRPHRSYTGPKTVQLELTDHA
The test can be described thus: CDS well image, 293T cells transfected with the mouse gene, stained with the mouse fusion protein.

For a further test, the target named is B7-H1 (Mus musculus, UniProt Q9EP73). The test is described as above.
The target of a further test is T2, PD-1 (Mus musculus, UniProt Q02242).
T2 sequence (membrane protein, looked up): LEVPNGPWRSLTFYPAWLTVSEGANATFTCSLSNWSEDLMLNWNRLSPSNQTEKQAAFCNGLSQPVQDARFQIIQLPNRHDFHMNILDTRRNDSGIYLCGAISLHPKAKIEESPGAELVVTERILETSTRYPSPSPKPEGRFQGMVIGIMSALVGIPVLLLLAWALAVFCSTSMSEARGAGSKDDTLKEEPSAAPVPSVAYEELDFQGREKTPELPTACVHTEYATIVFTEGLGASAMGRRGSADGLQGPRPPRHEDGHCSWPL
Described as above.

For the next test, the target named is T3, B7-DC (Mus musculus, UniProt Q9WUL5).
T3 sequence (membrane protein, looked up): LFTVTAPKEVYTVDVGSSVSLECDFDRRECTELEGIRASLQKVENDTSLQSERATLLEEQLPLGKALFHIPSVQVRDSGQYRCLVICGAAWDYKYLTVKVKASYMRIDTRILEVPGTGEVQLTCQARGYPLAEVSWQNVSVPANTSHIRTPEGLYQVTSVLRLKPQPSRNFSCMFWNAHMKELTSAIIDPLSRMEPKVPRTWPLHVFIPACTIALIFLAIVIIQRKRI
Described as above.

The test “B7-DCIg” deals with B1. The test is described as above.
In a further test the target is T4, B7-H1Ig (Mus musculus, UniProt Q9EP73).
T4 construct: Ig fusion protein purchased from R&D systems; also called mouse B7-H1Ig fusion protein
The test is described as above.

For test [2], the target named is T5, human B7-2 (CD86, B70) expressed on 293T cells (human, UniProt P42081 24-329).
T5 construct: whole, on cells
T5 sequence (looked up): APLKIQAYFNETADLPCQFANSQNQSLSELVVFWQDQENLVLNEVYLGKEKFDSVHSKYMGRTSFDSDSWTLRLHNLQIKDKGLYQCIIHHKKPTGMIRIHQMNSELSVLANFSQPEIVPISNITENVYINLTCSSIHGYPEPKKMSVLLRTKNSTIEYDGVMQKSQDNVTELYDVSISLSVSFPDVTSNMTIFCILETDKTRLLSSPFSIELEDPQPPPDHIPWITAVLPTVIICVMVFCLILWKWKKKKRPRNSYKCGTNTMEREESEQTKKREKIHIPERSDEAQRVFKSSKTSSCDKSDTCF
The test can be described thus: CDS well image, 293T cells transfected with the human gene, stained with the human fusion protein.

In test [3] the target is T6, human B7-H2, full length, expressed on cells (B7-H2+293T cells) (human, UniProt O75144 19-302).
T6 construct: This id also stands for endogenous B7-H2 on monocyte-derived dendritic cells in the functional rows; also called ICOSL; ICOSLG
T6 sequence: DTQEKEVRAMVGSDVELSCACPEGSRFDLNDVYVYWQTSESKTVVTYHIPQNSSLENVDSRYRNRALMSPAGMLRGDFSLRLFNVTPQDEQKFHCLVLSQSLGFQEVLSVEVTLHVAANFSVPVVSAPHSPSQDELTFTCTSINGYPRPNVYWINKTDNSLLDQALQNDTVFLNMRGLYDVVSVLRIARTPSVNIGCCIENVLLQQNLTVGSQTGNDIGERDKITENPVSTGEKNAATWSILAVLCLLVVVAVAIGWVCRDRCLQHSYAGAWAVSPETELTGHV
The test is described as above.

The target in test [4] is T7, human B7-1 (CD80) expressed on 293T cells (human, UniProt P33681 35-288).
T7 construct: whole, on cells
T7 sequence (looked up): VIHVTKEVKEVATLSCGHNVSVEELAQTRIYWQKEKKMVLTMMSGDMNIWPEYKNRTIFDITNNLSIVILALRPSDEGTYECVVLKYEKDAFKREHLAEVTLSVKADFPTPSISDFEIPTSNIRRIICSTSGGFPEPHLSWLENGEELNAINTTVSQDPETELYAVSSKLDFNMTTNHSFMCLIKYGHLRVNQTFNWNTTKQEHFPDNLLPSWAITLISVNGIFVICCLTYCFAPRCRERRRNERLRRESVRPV
The description is as above.

Test [5] deals with T8, human B7-DC expressed on 293T cells (human, UniProt Q9BQ51 20-273).
T8 construct: whole, on cells
T8 sequence (looked up): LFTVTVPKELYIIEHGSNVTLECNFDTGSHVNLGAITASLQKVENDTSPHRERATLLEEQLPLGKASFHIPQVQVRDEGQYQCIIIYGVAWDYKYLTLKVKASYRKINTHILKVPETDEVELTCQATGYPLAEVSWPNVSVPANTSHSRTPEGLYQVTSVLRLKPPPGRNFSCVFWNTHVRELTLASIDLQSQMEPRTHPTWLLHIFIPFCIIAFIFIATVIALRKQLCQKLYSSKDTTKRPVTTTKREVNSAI
The description is as above.

Another test deals with T9, CD28 (Mus musculus, UniProt P31041).
T9 sequence (membrane protein, looked up): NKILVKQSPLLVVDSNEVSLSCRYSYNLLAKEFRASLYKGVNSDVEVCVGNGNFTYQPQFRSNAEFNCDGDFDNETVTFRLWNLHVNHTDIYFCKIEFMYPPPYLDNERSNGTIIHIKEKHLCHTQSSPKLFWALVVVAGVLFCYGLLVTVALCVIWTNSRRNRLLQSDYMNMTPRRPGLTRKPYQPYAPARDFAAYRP
The test can be described thus: CDS well image, 293T cells transfected with the mouse gene, stained with the mouse fusion protein.

The target in the test “ICOS” is B2. The description is as above.
The next test concerns the target CTLA-4 (Mus musculus, UniProt P09793). Described as above.
Test [6] deals with T10, human B7-H1 expressed on 293T cells (human, UniProt Q9NZQ7 19-290).
T10 construct: whole, on cells
Briefly: CDS well image, 293T cells transfected with the human gene, stained with the human fusion protein.

Chain of B7-H1 (Q9EP73 19-290 limits assumed): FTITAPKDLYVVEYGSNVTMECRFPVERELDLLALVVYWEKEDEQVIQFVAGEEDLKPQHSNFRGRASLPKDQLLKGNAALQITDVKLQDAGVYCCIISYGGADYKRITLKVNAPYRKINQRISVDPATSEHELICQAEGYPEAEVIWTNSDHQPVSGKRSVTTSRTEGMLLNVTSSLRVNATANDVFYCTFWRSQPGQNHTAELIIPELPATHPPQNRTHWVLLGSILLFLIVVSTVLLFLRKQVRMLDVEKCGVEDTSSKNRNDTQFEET
T4 sequence (Q9EP73 19-238 limits assumed): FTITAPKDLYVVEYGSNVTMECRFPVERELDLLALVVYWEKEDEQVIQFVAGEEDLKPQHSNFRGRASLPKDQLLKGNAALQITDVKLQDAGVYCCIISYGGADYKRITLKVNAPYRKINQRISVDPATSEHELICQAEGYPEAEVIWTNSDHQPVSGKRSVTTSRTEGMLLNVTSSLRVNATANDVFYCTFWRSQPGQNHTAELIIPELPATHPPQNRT
T10 sequence (Q9NZQ7 19-290): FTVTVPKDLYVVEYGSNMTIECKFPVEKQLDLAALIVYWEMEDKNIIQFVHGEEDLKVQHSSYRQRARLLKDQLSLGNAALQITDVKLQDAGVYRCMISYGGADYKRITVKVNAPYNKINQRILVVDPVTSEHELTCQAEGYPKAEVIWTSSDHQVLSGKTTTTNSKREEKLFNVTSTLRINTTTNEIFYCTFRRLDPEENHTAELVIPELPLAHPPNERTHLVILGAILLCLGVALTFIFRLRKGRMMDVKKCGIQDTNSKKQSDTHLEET

Regarding B1, the binding result in [1] was “no binding”; with B7-H1, “no binding”; in the test with PD-1, “binds”; in the test with B7-DC, “no binding”.
For B2, the binding result with B7-DCIg and with B7-H1Ig was “no binding” in each case.

B3: human B7-1Ig fusion protein (Fc fusion, UniProt P33681 35-242, looked up)
chain: VIHVTKEVKEVATLSCGHNVSVEELAQTRIYWQKEKKMVLTMMSGDMNIWPEYKNRTIFDITNNLSIVILALRPSDEGTYECVVLKYEKDAFKREHLAEVTLSVKADFPTPSISDFEIPTSNIRRIICSTSGGFPEPHLSWLENGEELNAINTTVSQDPETELYAVSSKLDFNMTTNHSFMCLIKYGHLRVNQTFNWNTTKQEHFPDN
notes: Bought from R&D Systems; Ig (Fc) part not given
For the molecule B3, the binding result in [2], in test [3], in test [4] and in test [5] was “no binding” throughout.

B4: PD-1Ig (Fc fusion, Mus musculus, UniProt Q02242 25-167, looked up)
fusion protein: LEVPNGPWRSLTFYPAWLTVSEGANATFTCSLSNWSEDLMLNWNRLSPSNQTEKQAAFCNGLSQPVQDARFQIIQLPNRHDFHMNILDTRRNDSGIYLCGAISLHPKAKIEESPGAELVVTERILETSTRYPSPSPKPEGRFQ
notes: Ig fusion protein purchased from R&D systems; also called mouse PD-1Ig fusion protein
Turning to B4, the binding result is “no binding” in test [1]; “binds” with B7-H1; “no binding” with CD28; “no binding” with ICOS; “no binding” with PD-1; “no binding” in the test with CTLA-4. Moreover, the binding result with B7-DC is recorded as “binds”.

B5: B7-H2Ig (Fc fusion, Mus musculus, UniProt Q9JHJ8 47-279, looked up)
fusion protein: ETEVGAMVGSNVVLSCIDPHRRHFNLSGLYVYWQIENPEVSVTYYLPYKSPGINVDSSYKNRGHLSLDSMKQGNFSLYLKNVTPQDTQEFTCRVFMNTATELVKILEEVVRLRVAANFSTPVISTSDSSNPGQERTYTCMSKNGYPEPNLYWINTTDNSLIDTALQNNTVYLNKLGLYDVISTLRLPWTSRGDVLCCVENVALHQNITSISQAESFTGNNTKNPQETHNNELK
notes: Ig fusion protein purchased from R&D systems; also called mouse B7-H2Ig fusion protein
For B5, the binding result (in [1]; with B7-H1; with PD-1) was “no binding” in each case.

B6: human B7-H2Ig fusion protein (Fc fusion)
chain: DTQEKEVRAMVGSDVELSCACPEGSRFDLNDVYVYWQTSESKTVVTYHIPQNSSLENVDSRYRNRALMSPAGMLRGDFSLRLFNVTPQDEQKFHCLVLSQSLGFQEVLSVEVTLHVAANFSVPVVSAPHSPSQDELTFTCTSINGYPRPNVYWINKTDNSLLDQALQNDTVFLNMRGLYDVVSVLRIARTPSVNIGCCIENVLLQQNLTVGSQTGNDIGERDKITENPVSTGEKNAATWS
notes: Ig (Fc) part not given
Turning to B6, the binding result in test [2], in test [3], in test [6], in test [4] and in test [5] was “no binding” throughout.

B7: ICOSIg (Fc fusion, Mus musculus, UniProt Q9WVS0 21-144, looked up)
fusion protein: EINGSADHRMFSFHNGGVQISCKYPETVQQLKMRLFREREVLCELTKTKGSGNAVSIKNPMLCLYHLSNNSVSFFLNNPDSSQGSYYFCSLSIFDPPPFQERNLSGGYLHIYESQLCCQLKLWL
notes: Ig fusion protein purchased from R&D systems; also called mouse ICOSIg fusion protein
B7: the binding result is recorded as “binds” in test [1]; “no binding” in the test with B7-H1; “no binding” with CD28; “no binding” in the test with ICOS; “no binding” with PD-1; “no binding” in the test with CTLA-4. Further, in the test with B7-DC, the binding result is “no binding”.
